Experimental data taken from paper PMC2922928 (Nature structural & molecular biology, 2010).

What was measured:
Assay in all cases: ELISA
[1] = target: His-tagged p53(ΔC30) purified from bacteria (human, UniProt P04637 1-363)
[2] = target: Flag-p53 purified from insect cells (unacetylated) (human, UniProt P04637 1-393)
[3] = target: His-tagged p53 purified from bacteria (human, UniProt P04637 1-393)

Measured: binding result

B1: untagged Mdm2(10–139) (domain or fragment)
chain: GSMTDGAVTTSQIPASEQETLVRPKPLLLKLLKSVGAQKDTYTMKEVLFYLGQYIMTKRLYDEKQQHIVYCSNDLLGDLFGVPSFSVKEHRKIYTMIYRNLVVVNQQESSDSGTSVSENRCHLEGGSDQKDLV
binds: all assays above
